The record followed here is publication PMC7343708, “Molecular Dynamics to Elucidate the DNA-Binding Activity of AlpZ, a Member of the Gamma-Butyrolactone Receptor Family in Streptomyces ambofaciens”.

Series [1] addresses T1, AlpZ (Streptomyces ambofaciens, UniProt Q6VMG9 1-237).
T1 sequence: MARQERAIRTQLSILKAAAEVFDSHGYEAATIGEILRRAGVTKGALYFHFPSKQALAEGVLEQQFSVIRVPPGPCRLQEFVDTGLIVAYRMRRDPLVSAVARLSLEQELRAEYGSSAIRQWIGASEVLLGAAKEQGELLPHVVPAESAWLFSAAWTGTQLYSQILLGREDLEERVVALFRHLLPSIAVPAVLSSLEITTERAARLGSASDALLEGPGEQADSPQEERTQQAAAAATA
Briefly: switchSENSE; AlpZ 50 nM; kON 1.38e5 M-1 s-1, kOFF 1.05e-4 s-1 (printed rates give 0.76 nM, inconsistent with printed KD); switchSENSE: PE40 pH 7.4 (10 mM Na phosphate, 40 mM NaCl, 0.05% Tween20, 50 uM EDTA, 50 uM EGTA), 30 C; EMSA: 20 mM HEPES pH 7.6, 1 mM EDTA, 10 mM (NH4)2SO4, 1. The conditions noted are these: protein: recombinant; chain copies: 2; label: fluorescent nanolever on the switchSENSE chip; 40 bp duplex with 3' overhang 48 nt on strand 1, hybridized to chip nanolever. On the technique in general: Mobility shift assays separate free from complexed probe on a gel.

For series [2], the target named is T1, AlpZ. Briefly: switchSENSE; no association observed; switchSENSE: PE40 pH 7.4 (10 mM Na phosphate, 40 mM NaCl, 0.05% Tween20, 50 uM EDTA, 50 uM EGTA), 30 C; EMSA: 20 mM HEPES pH 7.6, 1 mM EDTA, 10 mM (NH4)2SO4, 1. Particulars: protein: recombinant; chain copies: 2; label: fluorescent nanolever on the switchSENSE chip; 40 bp duplex with 3' overhang 48 nt on strand 1, hybridized to chip nanolever.

B1: nanoAREV dsoverhang (dsDNA)
DNA 1: CTCACATTGACAAACCGACTGTGCTGTTTTTTTATCAGGGATCAGCGTTCGATGCTTCCGACTAATCAGCCATATCAGCTTACGACTA
DNA 2: CCCTGATAAAAAAACAGCACAGTCGGTTTGTCAATGTGAG
As for B1, the Kd (as a rule, a measure of binding affinity in units of concentration) with AlpZ [1] stood at 37.1 ± 3.3 nM.

B2: nanoControl dsoverhang (dsDNA)
DNA 1: GGGGGGTGTGAGAACGGGGTGTTCTGGTGTTTGCGCCGGAATCAGCGTTCGATGCTTCCGACTAATCAGCCATATCAGCTTACGACTA
DNA 2: TCCGGCGCAAACACCAGAACACCCCGTTCTCACACCCCCC
As for B2, in the series with AlpZ [2], the binding result is listed as “no binding”.
